Experimental data as given in patent US20200131256A1.

Key:
PACAP27 (human) = assay: cell-based or functional assay
PACAP38 (human) = assay: cell-based or functional assay
Chain of PACAP38 (human) (peptide, as listed by the source): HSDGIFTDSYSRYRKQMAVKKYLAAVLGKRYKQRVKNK

Chain of PACAP27 (human) (peptide, as listed by the source): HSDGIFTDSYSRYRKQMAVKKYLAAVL

**Q.** For Control IgG4 antibody, which Percentage Tryptase Release upon addition of PACAP27 (1 uM), human mast cells, negative control antibody (PACAP27 (human)) is on record?
**A.** 110%

**Q.** What about the Percentage Tryptase Release upon addition of PACAP27 (%), negative control antibody dose 153 uM (PACAP27 (human)) of the same substance?
**A.** 94.8%

**Q.** And the Percentage Tryptase Release upon addition of PACAP38 (1 uM), human mast cells, negative control antibody (PACAP38 (human))?
**A.** 104%

**Q.** What about the Percentage Tryptase Release upon addition of PACAP38 (%), negative control antibody dose 153 uM (PACAP38 (human)) of the same substance?
**A.** 79.6%
